Experiments:
[1] = target: soluble KGF receptor (FGFR(IIIb); K-sam) alkaline phosphatase fusion (FRAP) (murine) (UniProt P21803); test: competition with 125I-FGF-7, receptor binding experiments like those of Example 6
[2] = target: soluble KGF receptor (FGFR(IIIb); K-sam) alkaline phosphatase fusion (FRAP) (murine) (UniProt P21803); test: displacement of 125I-FGF-7 from soluble FGFR2(IIIb)-AP

Sequence of UniProt P21803 (P21803 22-377): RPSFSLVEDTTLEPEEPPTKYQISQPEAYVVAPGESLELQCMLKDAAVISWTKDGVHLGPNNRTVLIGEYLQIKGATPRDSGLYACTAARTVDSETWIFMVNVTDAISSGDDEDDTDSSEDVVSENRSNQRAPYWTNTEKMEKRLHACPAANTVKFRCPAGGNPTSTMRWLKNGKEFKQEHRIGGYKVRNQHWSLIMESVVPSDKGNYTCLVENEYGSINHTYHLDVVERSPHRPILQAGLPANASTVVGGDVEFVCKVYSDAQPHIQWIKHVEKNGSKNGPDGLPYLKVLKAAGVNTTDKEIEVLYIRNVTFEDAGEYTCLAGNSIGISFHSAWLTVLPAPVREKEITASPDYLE

fold weaker potency of competition than unlabelled FGF-7 [1] [times weaker]	fold weaker binding than FGF-7 or FGF-1 [2] [times less]	Substance
100	–	FGF-2LK (FGF-2 loop mutant containing the 9-residue loop sequence Ala-Lys-Trp-Thr-His-Asn-Gly-Gly-Glu from FGF-7) (from UniProt P09038 1-117; P09038 123-155) (ligand)
–	5	FGF-2LA (human FGF-2 with surface loop residues 118 to 122 replaced by the corresponding bovine FGF-1 sequence) (ligand)

Source: EP0730651B1
